Test results: patent publication US20090137002A1 (published 2009)
Values belong to the binder of their own block, whether it stands above or below them.

Experiments:
[1] = target: T1, recombinant murine EphB4-Fc fusion protein (mouse, UniProt P54761 16-539); experiment: SET (MSD), solution equilibrium titration; n = 1
T1 construct: extracellular domain; also called mEphB4; mu EphB4; not shown: Fc part, not described
T1 sequence (looked up): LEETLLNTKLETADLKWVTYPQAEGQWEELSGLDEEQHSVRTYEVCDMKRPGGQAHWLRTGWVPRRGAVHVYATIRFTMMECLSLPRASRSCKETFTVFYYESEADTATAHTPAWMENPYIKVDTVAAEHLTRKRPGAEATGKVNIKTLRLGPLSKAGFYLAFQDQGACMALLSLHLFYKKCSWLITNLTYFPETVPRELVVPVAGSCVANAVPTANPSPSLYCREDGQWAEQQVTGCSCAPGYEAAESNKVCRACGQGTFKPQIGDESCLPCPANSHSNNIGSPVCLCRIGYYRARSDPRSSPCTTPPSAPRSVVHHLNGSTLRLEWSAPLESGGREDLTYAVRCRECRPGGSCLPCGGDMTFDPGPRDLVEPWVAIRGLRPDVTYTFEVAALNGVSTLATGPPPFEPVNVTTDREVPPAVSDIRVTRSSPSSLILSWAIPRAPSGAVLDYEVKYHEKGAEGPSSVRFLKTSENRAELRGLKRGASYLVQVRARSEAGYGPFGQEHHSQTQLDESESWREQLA
Experimental: Two independent measurements were performed on human and murine EphB4-Fc.

[2] = target: T2, myc-tagged human EphB4 on transfected CHO cells (human, UniProt P54760 16-987); experiment: FACS titration on CHO-EphB4 cells
T2 construct: whole, on cells; also called CHO-EphB4; CHO-hEphB4; not shown: myc tag
T2 sequence (looked up): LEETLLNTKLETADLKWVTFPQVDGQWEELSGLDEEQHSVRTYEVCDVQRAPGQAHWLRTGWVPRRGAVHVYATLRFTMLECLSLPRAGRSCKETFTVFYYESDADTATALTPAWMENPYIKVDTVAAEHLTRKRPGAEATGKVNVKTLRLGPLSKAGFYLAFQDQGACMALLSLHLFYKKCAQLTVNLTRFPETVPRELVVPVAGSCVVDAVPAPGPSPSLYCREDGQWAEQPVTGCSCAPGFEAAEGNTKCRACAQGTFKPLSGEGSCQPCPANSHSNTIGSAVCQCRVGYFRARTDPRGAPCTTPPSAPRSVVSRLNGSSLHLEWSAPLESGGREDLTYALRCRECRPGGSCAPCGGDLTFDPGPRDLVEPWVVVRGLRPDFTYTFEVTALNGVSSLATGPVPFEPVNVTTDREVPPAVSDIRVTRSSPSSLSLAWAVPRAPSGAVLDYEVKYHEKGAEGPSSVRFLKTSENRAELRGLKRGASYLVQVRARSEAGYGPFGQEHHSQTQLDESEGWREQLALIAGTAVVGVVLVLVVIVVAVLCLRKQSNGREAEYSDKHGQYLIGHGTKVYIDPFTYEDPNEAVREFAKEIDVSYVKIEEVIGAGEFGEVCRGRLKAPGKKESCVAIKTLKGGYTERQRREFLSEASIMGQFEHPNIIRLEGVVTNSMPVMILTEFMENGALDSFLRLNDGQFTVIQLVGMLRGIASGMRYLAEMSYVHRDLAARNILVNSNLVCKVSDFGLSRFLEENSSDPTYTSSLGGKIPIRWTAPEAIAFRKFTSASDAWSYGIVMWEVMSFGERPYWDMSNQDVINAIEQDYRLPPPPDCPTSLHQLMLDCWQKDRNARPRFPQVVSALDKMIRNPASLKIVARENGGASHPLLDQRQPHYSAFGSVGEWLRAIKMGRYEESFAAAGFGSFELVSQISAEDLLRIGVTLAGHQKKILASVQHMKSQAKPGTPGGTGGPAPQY

[3] = target: T3, recombinant human EphB4-Fc fusion protein (human, UniProt P54760 16-539); experiment: competition ELISA on coated hEphB4, competitor biotinylated mEphrinB2 250 ng/mL
T3 construct: extracellular domain; also called hEphB4; hu EphB4-Fc
T3 sequence (looked up): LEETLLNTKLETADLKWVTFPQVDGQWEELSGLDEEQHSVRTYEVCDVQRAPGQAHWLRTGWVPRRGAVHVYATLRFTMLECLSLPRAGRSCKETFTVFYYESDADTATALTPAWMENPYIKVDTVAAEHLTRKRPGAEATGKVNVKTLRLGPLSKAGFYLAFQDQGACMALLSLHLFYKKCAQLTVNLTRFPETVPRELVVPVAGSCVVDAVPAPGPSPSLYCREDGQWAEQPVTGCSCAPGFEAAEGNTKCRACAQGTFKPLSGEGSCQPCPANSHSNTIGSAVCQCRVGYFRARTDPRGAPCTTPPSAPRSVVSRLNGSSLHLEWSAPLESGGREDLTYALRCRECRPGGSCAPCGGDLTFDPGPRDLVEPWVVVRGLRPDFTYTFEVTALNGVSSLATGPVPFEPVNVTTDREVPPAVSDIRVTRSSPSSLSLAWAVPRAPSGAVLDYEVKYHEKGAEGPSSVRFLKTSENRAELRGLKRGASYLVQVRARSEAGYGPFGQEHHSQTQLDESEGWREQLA
Experimental: A 96-well plate was coated with recombinant hEphB4 in PBS o/n at 4° C. (5 μg/mL; 100 μL/well). The next day, the antigen was discarded and the plate blocked with 3% BSA/PBS (300 μl/well) for 2 hrs at room temperature (RT). Blocking solution was discarded and anti-EphB4 Fabs were added to the wells at different concentrations in 1% BSA/PBS and incubated for 30 min at RT. Recombinant biotinylated murine EphrinB2 was added at a final concentration of 250 ng/mL and incubated at RT for a further 30 min. The plate was washed and bound EphrinB2 was detected with Streptavidin-HRP (incubation 30 min at RT) and chemifluorescent substrate.

Kd [1]: 6.63 nM
B1: MOR03640 Fab (Fab, V domains shown)
VH: QVQLVESGGGLVQPGGSLRLSCAASGFTFNNSWMSWVRQAPGKGLEWVSNITSSSSMTHYADSVKGRFTISRDNSKNTLYLQMNSLRAEDTAVYYCARKGMSFYNNKYAKSMFDLWGQGTLVTVSS
VL: DIELTQPPSVSVAPGQTARISCSGDNLGKKYVHWYQQKPGQAPVLVIYYDSKRPSGIPERFSGSNSGNTATLTISGTQAEDEADYYCSAWTTTMMHIVFGGGTKLTVLG
notes: Monomeric HuCAL Fab, purified, MH-tagged

EC50 [2]: > 40 nM
IC50 (read off the curve) [3]: ~4 µg/mL
B2: MOR03641 Fab (Fab, V domains shown)
VH: QVQLVQSGAEVKKPGSSVKVSCKASGGTFSTYAISWVRQAPGQGLEWMGRIIPIFGTANYAQKFQGRVTITADESTSTAYMELSSLRSEDTAVYYCARSSYTILTTYYNYNAMDNWGQGTLVTVSS
VL: DIQMTQSPSSLSASVGDRVTITCRASQNINNFLNWYQQKPGKAPKLLIYGSSILQSGVPSRFSGSGSGTDFTLTISSLQPEDFAVYYCHQVSDTSDTFGQGTKVEIKR
notes: Monomeric HuCAL Fab (VH1A, kappa1), purified, MH-tagged; also called 3541 [sic]
